Test results published in paper PMC8666675, “Structural basis of RNA polymerase recycling by the Swi2/Snf2 family of ATPase RapA in Escherichia coli” (The Journal of Biological Chemistry, 2021).

Key:
[1] = target: T1, E. coli RNAP β subunit (E. coli, UniProt P0A8V2 1-1342); test: cryo-EM structure; EC-RapA: 4 μM RNAP core enzyme with DNA/RNA scaffold, then 5 μM RapA, 22 °C, storage buffer (10 mM Hepes pH 7.5, 50 mM NaCl, 0.1 mM EDTA, 5 mM DTT); gel filtration; 1 mM AMPPNP and CMPCPP; BS3 cross-linked; 3.3 Å; details: both partners purified
T1 construct: RNA polymerase β subunit, E. coli; Stood in the assay as a subunit of the core enzyme m2, not alone; source: E. coli BL21(DE3), pVS10, purified as part of the RNAP core enzyme

[2] = target: T2, E. coli RNAP β′ subunit (E. coli, UniProt P0A8T7 1-1407); test: as above; details: both partners purified
T2 construct: RNA polymerase β′ subunit, E. coli; Stood in the assay as a subunit of the core enzyme m2, not alone; source: E. coli BL21(DE3), pVS10, purified as part of the RNAP core enzyme
T2 sequence (P0A8T7 whole entry): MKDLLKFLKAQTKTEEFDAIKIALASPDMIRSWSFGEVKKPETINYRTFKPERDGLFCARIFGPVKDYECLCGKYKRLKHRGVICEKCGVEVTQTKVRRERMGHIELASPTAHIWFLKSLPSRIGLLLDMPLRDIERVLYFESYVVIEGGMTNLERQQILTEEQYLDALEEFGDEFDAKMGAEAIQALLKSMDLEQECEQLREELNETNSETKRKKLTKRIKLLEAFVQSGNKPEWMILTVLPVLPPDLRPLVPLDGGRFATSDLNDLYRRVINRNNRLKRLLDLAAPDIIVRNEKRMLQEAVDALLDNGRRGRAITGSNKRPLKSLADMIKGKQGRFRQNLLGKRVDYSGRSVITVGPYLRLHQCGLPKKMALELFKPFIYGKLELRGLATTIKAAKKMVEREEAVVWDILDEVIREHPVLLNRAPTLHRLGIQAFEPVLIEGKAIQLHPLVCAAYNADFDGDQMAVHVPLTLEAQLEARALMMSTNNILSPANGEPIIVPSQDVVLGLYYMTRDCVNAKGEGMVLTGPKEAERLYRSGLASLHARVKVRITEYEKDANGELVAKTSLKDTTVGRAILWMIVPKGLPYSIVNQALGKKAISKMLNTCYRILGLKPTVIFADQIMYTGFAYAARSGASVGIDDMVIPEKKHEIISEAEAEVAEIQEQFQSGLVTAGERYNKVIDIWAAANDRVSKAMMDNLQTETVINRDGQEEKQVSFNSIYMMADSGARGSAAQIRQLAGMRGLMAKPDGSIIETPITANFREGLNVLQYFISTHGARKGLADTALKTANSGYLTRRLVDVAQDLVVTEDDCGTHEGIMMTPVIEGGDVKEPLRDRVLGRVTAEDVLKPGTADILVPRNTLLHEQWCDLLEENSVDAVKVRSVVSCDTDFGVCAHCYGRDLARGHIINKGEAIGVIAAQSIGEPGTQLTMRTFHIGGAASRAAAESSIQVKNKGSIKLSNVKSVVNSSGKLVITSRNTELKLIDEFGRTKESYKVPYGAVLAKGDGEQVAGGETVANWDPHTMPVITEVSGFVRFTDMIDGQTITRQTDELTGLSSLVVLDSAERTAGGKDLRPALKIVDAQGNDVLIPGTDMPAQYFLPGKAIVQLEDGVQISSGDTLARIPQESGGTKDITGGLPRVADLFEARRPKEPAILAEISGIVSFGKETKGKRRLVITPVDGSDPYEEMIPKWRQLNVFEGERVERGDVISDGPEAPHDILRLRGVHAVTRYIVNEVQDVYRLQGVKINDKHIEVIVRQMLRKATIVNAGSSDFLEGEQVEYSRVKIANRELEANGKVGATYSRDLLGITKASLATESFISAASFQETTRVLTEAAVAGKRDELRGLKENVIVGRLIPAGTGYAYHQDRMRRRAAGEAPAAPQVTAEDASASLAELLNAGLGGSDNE

T1 sequence (P0A8V2 whole entry): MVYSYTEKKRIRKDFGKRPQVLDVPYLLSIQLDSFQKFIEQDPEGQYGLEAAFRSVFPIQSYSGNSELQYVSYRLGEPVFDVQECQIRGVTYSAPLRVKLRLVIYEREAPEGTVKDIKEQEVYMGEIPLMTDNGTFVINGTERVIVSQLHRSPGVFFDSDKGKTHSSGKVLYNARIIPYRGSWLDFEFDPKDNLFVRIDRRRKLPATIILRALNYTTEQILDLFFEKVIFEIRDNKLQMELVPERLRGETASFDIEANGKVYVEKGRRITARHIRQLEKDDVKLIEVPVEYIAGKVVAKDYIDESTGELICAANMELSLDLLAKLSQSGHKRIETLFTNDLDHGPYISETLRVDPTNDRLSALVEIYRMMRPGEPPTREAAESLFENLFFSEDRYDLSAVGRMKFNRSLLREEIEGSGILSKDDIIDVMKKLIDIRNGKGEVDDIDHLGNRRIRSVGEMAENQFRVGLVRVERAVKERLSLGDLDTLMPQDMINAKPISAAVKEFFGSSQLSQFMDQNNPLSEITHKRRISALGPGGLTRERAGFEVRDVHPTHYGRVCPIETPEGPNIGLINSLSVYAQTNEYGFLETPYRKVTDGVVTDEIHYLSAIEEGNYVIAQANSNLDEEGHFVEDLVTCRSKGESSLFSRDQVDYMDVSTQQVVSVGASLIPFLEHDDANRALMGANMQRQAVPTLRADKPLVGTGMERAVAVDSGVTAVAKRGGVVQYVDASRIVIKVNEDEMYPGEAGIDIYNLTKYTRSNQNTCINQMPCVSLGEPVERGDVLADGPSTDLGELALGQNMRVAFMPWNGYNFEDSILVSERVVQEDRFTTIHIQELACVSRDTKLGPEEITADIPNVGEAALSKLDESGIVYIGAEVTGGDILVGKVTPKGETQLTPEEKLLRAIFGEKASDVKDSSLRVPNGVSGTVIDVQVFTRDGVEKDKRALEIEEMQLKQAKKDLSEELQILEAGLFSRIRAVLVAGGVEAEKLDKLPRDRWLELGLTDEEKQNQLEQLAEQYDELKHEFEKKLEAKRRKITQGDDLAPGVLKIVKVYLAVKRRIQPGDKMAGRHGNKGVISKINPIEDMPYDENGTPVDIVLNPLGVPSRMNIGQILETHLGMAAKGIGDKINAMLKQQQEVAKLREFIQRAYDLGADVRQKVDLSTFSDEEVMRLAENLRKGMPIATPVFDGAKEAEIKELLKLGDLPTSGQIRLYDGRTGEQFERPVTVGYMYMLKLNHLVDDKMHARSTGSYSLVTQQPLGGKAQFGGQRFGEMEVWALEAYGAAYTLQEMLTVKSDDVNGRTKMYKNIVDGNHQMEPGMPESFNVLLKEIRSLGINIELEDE

B1: E. coli RapA protein (enzyme, UniProt P60240 1-968, looked up)
chain: MPFTLGQRWISDTESELGLGTVVAVDARTVTLLFPSTGENRLYARSDSPVTRVMFNPGDTITSHDGWQMQVEEVKEENGLLTYIGTRLDTEESGVALREVFLDSKLVFSKPQDRLFAGQIDRMDRFALRYRARKYSSEQFRMPYSGLRGQRTSLIPHQLNIAHDVGRRHAPRVLLADEVGLGKTIEAGMILHQQLLSGAAERVLIIVPETLQHQWLVEMLRRFNLRFALFDDERYAEAQHDAYNPFDTEQLVICSLDFARRSKQRLEHLCEAEWDLLVVDEAHHLVWSEDAPSREYQAIEQLAEHVPGVLLLTATPEQLGMESHFARLRLLDPNRFHDFAQFVEEQKNYRPVADAVAMLLAGNKLSNDELNMLGEMIGEQDIEPLLQAANSDSEDAQSARQELVSMLMDRHGTSRVLFRNTRNGVKGFPKRELHTIKLPLPTQYQTAIKVSGIMGARKSAEDRARDMLYPERIYQEFEGDNATWWNFDPRVEWLMGYLTSHRSQKVLVICAKAATALQLEQVLREREGIRAAVFHEGMSIIERDRAAAWFAEEDTGAQVLLCSEIGSEGRNFQFASHMVMFDLPFNPDLLEQRIGRLDRIGQAHDIQIHVPYLEKTAQSVLVRWYHEGLDAFEHTCPTGRTIYDSVYNDLINYLASPDQTEGFDDLIKNCREQHEALKAQLEQGRDRLLEIHSNGGEKAQALAESIEEQDDDTNLIAFAMNLFDIIGINQDDRGDNMIVLTPSDHMLVPDFPGLSEDGITITFDREVALAREDAQFITWEHPLIRNGLDLILSGDTGSSTISLLKNKALPVGTLLVELIYVVEAQAPKQLQLNRFLPPTPVRMLLDKNGNNLAAQVEFETFNRQLNAVNRHTGSKLVNAVQQDVHAILQLGEAQIEKSARALIDAARNEADEKLSAELSRLEALRAVNPNIRDDELTAIESNRQQVMESLDQAGWRLDALRLIVVTHQ
notes: RapA, Swi2/Snf2 family ATPase of E. coli, full-length; NTD is residues 1-109; In the EC-RapA sample the complex was cross-linked with BS3; also called τ factor
[1]
  binding result: binds
[2]
  binding result: binds
